From patent US4348387A, “Method and system for the controlled release of biologically active substances to a body fluid” (The Rockefeller University, priority 1979, dated 1982)
Several values for one entry are separate records, joined by “and”; a condition that tells them apart may be missing. Equal entries are not always repeated.

What was measured:
Concanavalin A = Concanavalin A (Canavalia ensiformis, UniProt P02866); assay: binding to and glucose elution from columns of immobilized Concanavalin A; design: species or system Jack Bean
Method: At the point indicated by the arrow, 0.2 M glucose in the column buffer was begun. Fractions (2.0 ml) were collected at a flow rate of 10-15 ml/h.
Displacement of hormone was accomplished using 1.0 ml pulses of column buffer containing varying amounts of glucose. Glucose content is indicated over the appropriate arrows. Fractions (1.7 ml) were collected at a flow rate of 10-15 ml/h.

blood glucose = assay: blood-glucose depression assay modified from the U.S. Pharmacopeia; conditions: individual animals A-F; overnight fast; 0.1mg protein/100gm body weight subcutaneous; 60 minutes after injection; each animal its own control
Method: The conjugate prepared in I was tested using the blood-glucose depression assay modified from the U.S. Pharmoacopeia (Vol. XVIII, 883-884 (1967)).
*After an overnight fast, each animal received 0.1mg protein/100gm body
weight by subcutaneous injection. Each of the animals served as its own
control, receiving the maltoseinsulin derivative on day 1, and control
insulin on day 2. Blood glucose depression was determined 60 minutes afte
injection using a Beckman Glucose Analyzer 2.

## insulin [Control insulin]
Concanavalin A; 20 mg applied to column, buffer wash, 25 mM sodium phosphate pH 7.4
  binding to immobilized Concanavalin A: did not bind to Concanavalin A
Concanavalin A; 0.2 M glucose in column buffer, 1,000:1 molar excess of glucose
  elution from Concanavalin A by glucose: none was eluted by the addition of glucose
Blood glucose
  BLOOD GLUCOSE DEPRESSION: 75 mg % and 70 mg % and 79 mg % and 64 mg % and 73 mg %
